± gives the uncertainty stated by the source.
Experiment: self-splicing fitness, log relative to wild type (ln ratio); higher = more splicing; Tetrahymena group I intron in knt gene, E. coli kanamycin selection, DiMSum; sequences stand for … in CUCUCU…GGAGGGAAAAGUUAUCAGGCAUGCACCUGGUAGCUAGUCUUUAAACCAAUAGAUUGCAUCGGUUUAAAAGGCAAGACCGUCAAAUUGCGGGAAAGGGGUCAACAGCCGUUCAGUACCAAGUCUCAGGGGAAACUUUGAGAUGGCCUUGCAAAGGGUAUGGUAAUAAGCUGACGGACAUGGUCCUAACCACGCAGCCAAGUCCUAAGUCAACAGAUCUUCUGUUGAUAUGGAUGCAGUUCACAGACUAAAUGUCGGUCGGGGAAGAUGUAUUCUUCUCAUAAGAUAUAGUCGGACCUCUCCUUAAUGGGAGCUAGCGGAUGAAGUGAUGCAACACUGGAGCCGCUGGGAACUAAUUUGUAUGCGAAAGUAUAUUGAUUAGUUUUGGAGUACUCGUGGUCG
Summary of the method: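 Library with all eight P1ex-region intron nucleotides randomised, intron inside the knt kanamycin-resistance gene on pET-22b(+), in E. coli BL21(DE3). Cells grew overnight at 37°C or 30°C on LB agar with or without 25 μg/mL kanamycin (plus 100 μg/mL carbenicillin, 50 μM IPTG, 0.2% rhamnose), in six replicate transformations. Pooled colonies were amplicon-sequenced on Illumina HiSeq 2500. DiMSum fitness is the error-weighted combination of wild-type-normalised replicate fold changes, kanamycin versus none.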

| Sequence | self-splicing fitness (ln) (30 °C) | self-splicing fitness (ln) (37 °C) |
| --- | --- | --- |
| GGGCAGCAAUAUUACGGCAU | 0.216 ± 0.12 | -0.928 ± 0.12 |
| GGGCAGCAAUAUUACGGGGC | -0.887 ± 0.22 | -1.9 ± 0.42 |
| GGGCAGCAAUAUUACGGGUA | – | -2.55 ± 0.35 |
| GGGCAGCAAUAUUACGUAAA | -0.819 ± 0.09 | -0.375 ± 0.11 |
| GGGCAGCAAUAUUACGUAGA | -1.53 ± 0.063 | -0.244 ± 0.083 |
| GGGCAGCAAUAUUACGUGCC | – | -0.519 ± 0.48 |
| GGGCAGCAAUAUUACGUGUG | -2.34 ± 0.14 | -1.26 ± 0.16 |
| GGGCAGCAAUAUUACGUUGA | -1.3 ± 0.081 | -0.64 ± 0.098 |
| GGGCAGCAAUAUUACGUUUG | -1.17 ± 0.098 | -0.133 ± 0.11 |
| GGGGAGCAAUAUUACGAAAC | -3.15 ± 0.42 | -0.654 ± 0.3 |
| GGGGAGCAAUAUUACGAACU | -2.75 ± 0.31 | -1.76 ± 0.27 |
| GGGGAGCAAUAUUACGAUCG | -1.44 ± 0.2 | -0.888 ± 0.3 |
| GGGGAGCAAUAUUACGAUGA | -2.02 ± 0.3 | -2.57 ± 0.37 |
| GGGGAGCAAUAUUACGAUGG | -2.44 ± 0.45 | -2.67 ± 0.44 |
| GGGGAGCAAUAUUACGCACG | -1.89 ± 0.17 | -1.44 ± 0.24 |
| GGGGAGCAAUAUUACGCCGG | – | -0.928 ± 0.42 |
| GGGGAGCAAUAUUACGCGGU | -1.99 ± 0.27 | – |
| GGGGAGCAAUAUUACGGACA | – | -1.12 ± 0.2 |
| GGGGAGCAAUAUUACGUAAG | -2.56 ± 0.21 | -1.01 ± 0.24 |
| GGGGAGCAAUAUUACGUAAU | -4.07 ± 0.47 | -0.557 ± 0.19 |
| GGGGAGCAAUAUUACGUAGU | – | -1.53 ± 0.37 |
| GGGGAGCAAUAUUACGUCCU | -3.89 ± 0.4 | – |
| GGGUAGCAAUAUUACGAAAA | -0.788 ± 0.35 | – |
| GGGUAGCAAUAUUACGAACC | -2.05 ± 0.39 | – |
| GGGUAGCAAUAUUACGAACG | -0.91 ± 0.08 | -0.292 ± 0.1 |

| Sequence | self-splicing fitness (ln) (30 °C) | self-splicing fitness (ln) (37 °C) |
| --- | --- | --- |
| GGGUAGCAAUAUUACGAGCG | -1.3 ± 0.12 | -0.426 ± 0.12 |
| GGGUAGCAAUAUUACGAGGA | -2.14 ± 0.22 | -2.74 ± 0.3 |
| GGGUAGCAAUAUUACGAUGA | -0.862 ± 0.13 | -0.927 ± 0.14 |
| GGGUAGCAAUAUUACGAUUU | -0.0881 ± 0.1 | -0.476 ± 0.099 |
| GGGUAGCAAUAUUACGCACG | -2.15 ± 0.26 | 0.541 ± 0.23 |
| GGGUAGCAAUAUUACGCAGG | – | -2.34 ± 0.25 |
| GGGUAGCAAUAUUACGCCGG | -4.18 ± 0.39 | -2.03 ± 0.24 |
| GGGUAGCAAUAUUACGCCUA | 0.113 ± 0.12 | -0.00829 ± 0.14 |
| GGGUAGCAAUAUUACGCCUU | -1.56 ± 0.18 | -2.07 ± 0.21 |
| GGGUAGCAAUAUUACGCGCG | -0.435 ± 0.11 | 0.558 ± 0.15 |
| GGGUAGCAAUAUUACGCGUU | -0.304 ± 0.091 | -0.0887 ± 0.12 |
| GGGUAGCAAUAUUACGCUCU | -3.13 ± 0.34 | – |
| GGGUAGCAAUAUUACGCUUG | -0.33 ± 0.1 | -0.241 ± 0.15 |
| GGGUAGCAAUAUUACGGAAA | -1.82 ± 0.34 | 0.517 ± 0.27 |
| GGGUAGCAAUAUUACGGAGC | -1.42 ± 0.14 | -0.425 ± 0.17 |
| GGGUAGCAAUAUUACGGUUU | -0.176 ± 0.068 | 0.138 ± 0.099 |
| GGGUAGCAAUAUUACGUAUA | -1.41 ± 0.14 | -0.205 ± 0.15 |
| GGGUAGCAAUAUUACGUCAA | -0.501 ± 0.13 | -0.61 ± 0.21 |
| GGGUAGCAAUAUUACGUCUC | -0.431 ± 0.28 | 0.223 ± 0.43 |
| GGGUAGCAAUAUUACGUGAC | -2.07 ± 0.17 | -2.27 ± 0.26 |
| GGGUAGCAAUAUUACGUUGU | -2.46 ± 0.19 | -1.14 ± 0.17 |
| GGGUAGCAAUAUUACGUUUG | -1.9 ± 0.14 | -1.35 ± 0.21 |
| GGUAAGCAAUAUUACGACCG | -1.05 ± 0.16 | 0.0485 ± 0.22 |
| GGUAAGCAAUAUUACGACGU | 0.151 ± 0.1 | 0.677 ± 0.13 |
| GGUAAGCAAUAUUACGACUU | -0.311 ± 0.15 | 0.0617 ± 0.18 |

| Sequence | self-splicing fitness (ln) (30 °C) | self-splicing fitness (ln) (37 °C) |
| --- | --- | --- |
| GGUAAGCAAUAUUACGAGCC | – | -2.76 ± 0.34 |
| GGUAAGCAAUAUUACGAUCC | – | -1.74 ± 0.42 |
| GGUAAGCAAUAUUACGAUCU | -0.636 ± 0.1 | 1.04 ± 0.13 |
| GGUAAGCAAUAUUACGAUUU | -0.236 ± 0.1 | -0.0101 ± 0.14 |
| GGUAAGCAAUAUUACGCACA | -0.755 ± 0.12 | 0.101 ± 0.15 |
| GGUAAGCAAUAUUACGCCGA | -2.95 ± 0.43 | -0.926 ± 0.25 |
| GGUAAGCAAUAUUACGCGUA | -0.32 ± 0.21 | -0.425 ± 0.15 |
| GGUAAGCAAUAUUACGCUGU | -3.25 ± 0.29 | -1.65 ± 0.23 |
| GGUAAGCAAUAUUACGGAUA | -3.17 ± 0.25 | -1.69 ± 0.13 |
| GGUAAGCAAUAUUACGGCAU | -0.173 ± 0.078 | 0.827 ± 0.11 |
| GGUAAGCAAUAUUACGGCGG | -2.55 ± 0.24 | -0.84 ± 0.18 |
| GGUAAGCAAUAUUACGGCGU | 0.139 ± 0.13 | -0.0376 ± 0.15 |
| GGUAAGCAAUAUUACGGGUA | -1.98 ± 0.22 | -1.71 ± 0.18 |
| GGUAAGCAAUAUUACGUAGA | -1.56 ± 0.13 | -1.54 ± 0.21 |
| GGUAAGCAAUAUUACGUAGC | -0.417 ± 0.41 | – |
| GGUAAGCAAUAUUACGUAUC | -3.54 ± 0.23 | -1.39 ± 0.45 |
| GGUAAGCAAUAUUACGUAUG | -3.72 ± 0.29 | -2.32 ± 0.18 |
| GGUAAGCAAUAUUACGUCGU | -1 ± 0.11 | -0.732 ± 0.12 |
| GGUAAGCAAUAUUACGUGGG | -4.06 ± 0.3 | -2.36 ± 0.25 |
| GGUAAGCAAUAUUACGUGUA | -1.73 ± 0.078 | -0.95 ± 0.086 |
| GGUAAGCAAUAUUACGUUCA | -0.432 ± 0.081 | 0.0273 ± 0.12 |
| GGUCAGCAAUAUUACGAAUG | -0.0371 ± 0.078 | -0.989 ± 0.1 |
| GGUCAGCAAUAUUACGAUAG | -1.37 ± 0.077 | 0.0315 ± 0.1 |
| GGUCAGCAAUAUUACGCAAC | -0.639 ± 0.11 | -0.859 ± 0.17 |
| GGUCAGCAAUAUUACGCAGA | – | -2.72 ± 0.33 |

| Sequence | self-splicing fitness (ln) (30 °C) | self-splicing fitness (ln) (37 °C) |
| --- | --- | --- |
| GGUCAGCAAUAUUACGCAUG | -1.15 ± 0.1 | -0.079 ± 0.12 |
| GGUCAGCAAUAUUACGCCGC | -2.96 ± 0.26 | -2.62 ± 0.36 |
| GGUCAGCAAUAUUACGCGGU | -3.97 ± 0.39 | -2.26 ± 0.27 |
| GGUCAGCAAUAUUACGCGUA | -0.325 ± 0.067 | -0.158 ± 0.07 |
| GGUCAGCAAUAUUACGCUUC | -1.12 ± 0.14 | -0.693 ± 0.24 |
| GGUCAGCAAUAUUACGGACC | -3.67 ± 0.18 | -2.08 ± 0.22 |
| GGUCAGCAAUAUUACGGAGA | – | -1.69 ± 0.28 |
| GGUCAGCAAUAUUACGGAGU | -0.947 ± 0.086 | 0.0968 ± 0.12 |
| GGUCAGCAAUAUUACGGCAA | 0.415 ± 0.065 | 0.217 ± 0.083 |
| GGUCAGCAAUAUUACGGCAU | -0.469 ± 0.073 | 0.642 ± 0.1 |
| GGUCAGCAAUAUUACGGCUC | -2.39 ± 0.21 | -1.68 ± 0.3 |
| GGUCAGCAAUAUUACGGCUG | -0.728 ± 0.078 | -0.439 ± 0.091 |
| GGUCAGCAAUAUUACGGGGU | -3.37 ± 0.12 | -0.793 ± 0.086 |
| GGUCAGCAAUAUUACGGUGG | -4.17 ± 0.28 | -1.32 ± 0.13 |
| GGUCAGCAAUAUUACGUCGC | -0.517 ± 0.11 | 0.282 ± 0.12 |
| GGUCAGCAAUAUUACGUCUC | 0.385 ± 0.17 | -0.113 ± 0.15 |
| GGUCAGCAAUAUUACGUGCU | -1.5 ± 0.052 | -0.199 ± 0.067 |
| GGUCAGCAAUAUUACGUUAA | -1.4 ± 0.099 | -0.249 ± 0.088 |
| GGUCAGCAAUAUUACGUUGG | -3.35 ± 0.21 | -2.51 ± 0.2 |
| GGUGAGCAAUAUUACGAACG | -0.652 ± 0.13 | -1.23 ± 0.17 |
| GGUGAGCAAUAUUACGACUU | -0.531 ± 0.11 | 0.294 ± 0.12 |
| GGUGAGCAAUAUUACGAUAG | -0.576 ± 0.23 | -2.81 ± 0.34 |
| GGUGAGCAAUAUUACGCAUA | -0.925 ± 0.15 | -1.55 ± 0.22 |
| GGUGAGCAAUAUUACGCUUU | -2.63 ± 0.4 | -3.04 ± 0.47 |
| GGUGAGCAAUAUUACGGCAC | -1.85 ± 0.17 | -0.155 ± 0.18 |

— the supplement of paper PMC7877785
